Measured values from PMC3598503 (2013).
Bridges are numbered along the chain shown (N, C = ends). Where no end group is shown, it is not given here.

Target: T1, p32 (Homo sapiens, UniProt Q07021)
T1 chain: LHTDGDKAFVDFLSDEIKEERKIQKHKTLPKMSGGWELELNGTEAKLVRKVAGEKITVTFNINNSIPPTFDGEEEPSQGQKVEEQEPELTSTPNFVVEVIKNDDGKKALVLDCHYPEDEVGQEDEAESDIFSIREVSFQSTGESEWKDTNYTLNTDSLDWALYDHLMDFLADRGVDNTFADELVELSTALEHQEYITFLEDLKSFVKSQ
Experiment: SPR

CGNKRTRGC (disulfide 1-9) [Lyp-1]
Kd: 10.6 nM
